# Test results taken from US8936806B2, “Periostin induces proliferation of cardiomyocytes and promotes cardiac regeneration” (Children's Medical Center Corporation, priority 2007, dated 2015).
# “And” between values parts separate entries of the source, which are not always exact repeats. Identical values can stand only once. “Also recorded” adds a separate entry of the source.
# B1: periostin: Recombinant periostin, purified from HEK293 cells expressing the full-length human cDNA; secreted protein of 834 amino acids (Seq ID. No. 1) (protein, listed as Homo sapiens)
# chain: MIPFLPMFSLLLLLIVNPINANNHYDKILAHSRIRGRDQGPNVCALQQILGTKKKYFSTCKNWYKKSICGQKTTVLYECCPGYMRMEGMKGCPAVLPIDHVYGTLGIVGATTTQRYSDASKLREEIEGKGSFTYFAPSNEAWDNLDSDIRRGLESNVNVELLNALHSHMINKRMLTKDLKNGMIIPSMYNNLGLFINHYPNGVVTVNCARIIHGNQIATNGVVHVIDRVLTQIGTSIQDFIEAEDDLSSFRAAAITSDILEALGRDGHFTLFAPTNEAFEKLPRGVLERFMGDKVASEALMKYHILNTLQCSESIMGGAVFETLEGNTIEIGCDGDSITVNGIKMVNKKDIVTNNGVIHLIDQVLIPDSAKQVIELAGKQQTTFTDLVAQLGLASALRPDGEYTLLAPVNNAFSDDTLSMVQRLLKLILQNHILKVKVGLNELYNGQILETIGGKQLRVFVYRTAVCIENSCMEKGSKQGRNGAIHIFREIIKPAEKSLHEKLKQDKRFSTFLSLLEAADLKELLTQPGDWTLFVPTNDAFKGMTSEEKEILIRDKNALQNIILYHLTPGVFIGKGFEPGVTNILKTTQGSKIFLKEVNDTLLVNELKSKESDIMTTNGVIHVVDKLLYPADTPVGNDQLLEILNKLIKYIQIKFVRGSTFKEIPVTVYTTKIITKVVEPKIKVIEGSLQPIIKTEGPTLTKVKIEGEPEFRLIKEGETITEVIHGEPIIKKYTKIIDGVPVEITEKETREERIITGPEIKYTRISTGGGETEETLKKLLQEEVTKVTKFIEGGDGHLFEDEEIKRLLQGDTPVRKLQANKKVQGSRRRLREGRSQ
# Tested on: Adult male Sprague-Dawley rats
# Assay: Rat model of myocardial infarction: analysis of myocardial regeneration (histology, immunofluorescence)
# Type: in vivo
# Description: Horizontal cryosections of 14 μm thickness spaced at 1 mm intervals were analyzed. To determine infarct size, Masson's Trichrome-stained sections were analyzed at 1× magnification. The infarct border zone was defined as myocardial tissue within 0.5 mm of the fibrous scar tissue. Fibrosis and cardiomyocyte cross-sectional area were determined after staining with Masson's Trichrome at 10× and 40× magnification, respectively, and quantified using the Metamorph software package. BrdU-positive cardiac fibroblast nuclei were determined at 5 cross-sections per heart at the level of the myocardial infarction. Cardiomyocyte nuclei were counted using the optical dissector method (Howard, C. V. & Reed, M. Unbiased Stereology: Three-Dimensional Measurement In Microscopy, (BIOS Scientific Publishers, Oxford, 2005)) on troponin T and DAPI-stained sections in 32-60 random sample volumes of […] per heart. BrdU-positive cardiomyocyte nuclei were quantified on 16-20 sections per heart. […] Adult male Sprague-Dawley rats (300 gm, Charles River Laboratories) underwent experimental myocardial infarction as described (del Monte, F. et al. Abrogation of ventricular arrhythmias in a model of ischemia and reperfusion by targeting myocardial calcium cycling. Proc Natl Acad Sci USA 101, 5622-7 (2004)). The survival rate was 67%. Gelfoam loaded with 100 μg of recombinant periostin or with buffer were applied over the myocardial infarction at the time of surgery. […] Echocardiography and hemodynamic catheterization were performed as described (Prunier, F. et al. Am J Physiol Heart Circ Physiol (2006)). Horizontal cryosections of 14 μm thickness spaced at 1 mm intervals were analyzed. Masson's Trichrome-stained sections were analyzed at 10× magnification to determine infarct size (Pasumarthi, K. B., et al. Circ Res 96, 110-8 (2005)), defined as [coronal infarct perimeter (epicardial+endocardial)/total coronal perimeter (epicardial+endocardial)]×100 and thinning index (Engel, F. B., et al. Proc Natl Acad Sci USA 103, 15546-51 (2006)), defined as minimal infarct wall thickness/maximal septal wall thickness. The infarct border zone was defined as myocardial tissue within 0.5 mm of the fibrous scar tissue. Fibrosis was determined on 10× images of Masson's Trichrome stainings and quantified using the Metamorph software package (Molecular Devices Corp.). Cardiomyocyte cross-sectional area was determined after staining with Masson's Trichrome at 40× magnification and quantified using the Metamorph software package. BrdU-positive cardiac fibroblast nuclei were determined at 5 cross-sections per heart at the level of the myocardial infarction. Cardiomyocyte nuclei were counted on troponin T and DAPI-stained sections in 32-60 random sample volumes of 84,500 μm^3 per heart. BrdU-positive cardiomyocyte nuclei were quantified on 16-20 sections per heart. Capillaries and stem cells were detected with antibodies against von Willebrand factor (vWF) and c-kit, respectively, and quantified at 5 cross-sections per heart at the level of the myocardial infarction.
# [1] = 1 week, infarct and border zone
molecule,measurement,setting,value
B1,number of c-kit-positive cells in infarct and border zone vs control,1 and 12 weeks,did not differ
same,"mitosis (H3P), of cardiomyocyte nuclei",1 week,0.1±0.01%
same,infarct size vs control,1 week after MI,same infarct size
same,number of BrdU-positive cardiac fibroblasts,1 week after MI,decreased
same,number of cardiomyocyte nuclei vs control,1 week after MI,same number of nuclei
same,proportion of cycling cardiomyocytes vs proportion of apoptotic cardiomyocytes,1 week after MI,five-fold higher
same,arteriolar density vs control,[1],did not differ
same,capillary density vs control,[1],did not differ
same,"mitosis (H3P), of cardiomyocyte nuclei",12 weeks,0.2±0.5%
same,fibrotic tissue,12 weeks after MI,significantly decreased
same,heart weight vs buffer-treated rats,12 weeks after MI,similar
same,increase in arteriolar density compared with control hearts,12 weeks after MI,1.5 fold
same,increase in capillary density compared with control hearts,12 weeks after MI,4 fold
same,infarct size smaller compared with control hearts,12 weeks after MI,50%
same,left ventricular free wall thickness vs control,12 weeks after MI,thicker
same,more cardiomyocyte nuclei than control hearts,12 weeks after MI,6.2×10^6
same,proportion of cycling cardiomyocytes vs proportion of apoptotic cardiomyocytes,12 weeks after MI,100 fold
same,scar volume vs control,12 weeks after MI,smaller scar volume
same,septum thickness vs control,12 weeks after MI,thinner
same,thinning index,12 weeks after MI,improved thinning index
same,increased capillary density compared with control animals,"FIG. 11A, time not given, legend b80: one week",4 fold
same,number of stem cells (c-kit) vs buffer treated hearts,FIG. 11B,similar
same,calculated new cardiomyocyte nuclei from BrdU rate,after 12 weeks,7.2×10^6 per heart
same,cross-sectional cardiomyocyte area vs control,after MI,smaller
same,increase of DNA synthesis compared with buffer-treated animals,after MI,10 fold
same,left ventricular cardiomyocyte nuclei,after MI (FIG. 9i),18.8 million
same,cardiomyocyte apoptosis vs control,"after MI, 1 and 12 weeks",without changing the rate of apoptosis; also recorded: without affecting apoptosis; also recorded: similar
same,"DNA synthesis, cardiomyocytes per heart","after MI, 3 BrdU injections","5,268±402 per heart"
same,"BrdU uptake, of cardiomyocytes","infarct and border zone, 1 week",0.6±0.07%
same,"BrdU uptake, of cardiomyocytes","infarct and border zone, 12 weeks",1±0.3%
same,calculated cardiomyocyte nuclei generated from rate of mitosis,over 12 weeks,5.5×10^6
same,cardiomyocyte mitoses (metaphase chromosomes),"periostin-treated hearts, n=6","4,737±770"
same,"cell-cycle reentry, of all cardiomyocytes in the infarct border zone","rat, in vivo",0.6-1%
same,rate of cardiomyocytes entering the cell cycle,"rat, in vivo","3,727 per hour"
same,cell-cycle reentry of differentiated cardiomyocytes,"single injection of BrdU, labeling for 6.4 h, n=3","23,852±1,709 per heart"
same,BrdU-labeled cardiomyocytes / cell cycle re-entry in the infarct border zone,three injections of BrdU,1.4% and 1.4±0.5%
